Results on 51 sequences are retold here after the Immune Epitope Database (IEDB).

The first assay concerns the target HLA-A*03:01. Kind of assay: IEDB peptide-MHC binding, purified MHC/competitive/radioactivity; filed as Kd, often an IC50 or EC50 that approximates it; ≥ and ≤ were set here for values at or beyond the usual limits of such assays. Particulars: source organism: Mammarenavirus lassaense.
As to SGSCLNNEK, the Kd (as a rule, the free concentration of one partner at which half of the binding sites on the other are occupied at equilibrium, for simple one-to-one binding) was at least 20.3 µM.

The same assay, now with this note: source organism: SARS coronavirus Tor2.
RLYECLYRNR: the equilibrium dissociation constant (Kd) was found to be 0.00691 µM.

For the sequence VLAYMLFTK, the Kd worked out at 0.000179 µM.

Consider NVYADSFVVK, for which the equilibrium dissociation constant (Kd) was 0.0765 µM.

Still in this assay, the particulars now being: source organism: Vaccinia virus Copenhagen.
On to SLAIKNYYRK, for which the dissociation constant Kd came to 0.0353 µM.

Staying with this assay, now noted: source organism: Vaccinia virus WR.
Regarding DLDKVYEILK, the Kd is 3.35 µM.

AAGIIILMEY: the dissociation constant (Kd) was 6.28 µM.

With SIILANERY, the dissociation constant Kd was at least 78 µM.

Turning to GTIAGGVCY, the Kd came to 4.07 µM.

Regarding SIGNVTRLFY, the dissociation constant (Kd) turned out to be 0.00294 µM.

Turning to KALMQLTTK, the dissociation constant Kd was found to be 0.181 µM.

In the case of SARNKLFKR, the dissociation constant (Kd) is at least 58.7 µM.

In the case of LILSNKLLY, the Kd was 0.0137 µM.

Regarding RLTDTEYRAR, the dissociation constant Kd is 0.667 µM.

In the case of FISDNKKEYK, the Kd was 1.88 µM.

As to DIVNEHDIK, the Kd is at least 63.2 µM.

Take EFCVDHPFIY: the Kd was at least 70.1 µM.

On to YVKALTKNY, for which the Kd turned out to be 1.59 µM.

For the sequence VFIHMVRCCK, the dissociation constant Kd was at least 20.9 µM.

On to IFYFISIYSR, for which the Kd was 0.175 µM.

On to SMGFKVTTR, for which the Kd was 5.01 µM.

In the case of TSASEIKDR, the Kd is at least 78 µM.

Regarding GVEDTESIER, the equilibrium dissociation constant (Kd) was at least 70.1 µM.

For YSKKFQESFY, the Kd was found to be 2.72 µM.

Take LILNFLDWIK: the Kd was found to be 0.0251 µM.

Regarding PFEKEFTSDY, the Kd was at least 70.1 µM.

Another assay concerns the target HLA-A*02:03. Described as above. To be noted: source organism: Dengue virus 3 Martinique/1243/1999.
TLATGPITTL: the Kd is 0.012 µM.

Still in this assay, the particulars now being: source organism: Dengue virus 4 Philippines/H241/1956.
For TLYAVATTIL, the equilibrium dissociation constant (Kd) was 0.101 µM.

Still in this assay, the particulars now being: source organism: Mammarenavirus guanaritoense.
YCNYTRFWYI: the Kd was 4.34 µM.

Still in this assay, the particulars now being: source organism: Vaccinia virus WR.
On to LTSVDIETA, for which the equilibrium dissociation constant (Kd) came out at 11.5 µM.

For LMLHNPTSET, the Kd worked out at 4.48 µM.

For ATLNTLITL, the Kd worked out at 0.577 µM.

Regarding EVIERINLLV, the Kd stood at 3.33 µM.

As for YVILKDPRI, the dissociation constant Kd is 0.203 µM.

Take SLEATFIDV: the Kd is 0.0804 µM.

In the case of EVTPEYIKDL, the Kd came out at 2.27 µM.

On to DVFRPLFDFV, for which the dissociation constant (Kd) amounted to 2.57 µM.

With LLWFLTGTFV, the Kd is 0.00918 µM.

SMYVIPDEL: the Kd was found to be 0.0134 µM.

For TLIQYRQQL, the Kd is 0.41 µM.

As for NIFMTLVPV, the Kd turned out to be 0.00638 µM.

ILQMREIIT: the Kd turned out to be 1.34 µM.

Consider LTPFEKEFT, for which the dissociation constant (Kd) was at least 20.9 µM.

Consider TVEFDRDKVV, for which the Kd stood at 1.6 µM.

In the case of LISLINSLV, the Kd is 0.000478 µM.

Take AITLVVISVI: the Kd stood at 0.786 µM.

LLKCVSDSWL: the Kd is 0.118 µM.

For the sequence HVLLPFYETL, the Kd worked out at 0.213 µM.

The next assay addresses HLA-A*31:01. The description is as above. Particulars: source organism: Mammarenavirus juninense.
On to PLLCNLNKSH, for which the dissociation constant (Kd) was at least 70 µM.

Turning to SWPVQCPLDH, the dissociation constant Kd came out at 0.00974 µM.

The same assay, now with this note: source organism: Mammarenavirus lassaense.
As for HSYAGDAAEH, the Kd was 2.96 µM.

On to SGSCLNNEK, for which the equilibrium dissociation constant (Kd) is at least 60.9 µM.

The assay is the same for the next values; noted with them: source organism: SARS coronavirus Tor2.
Regarding RLYECLYRNR, the dissociation constant Kd amounted to 0.00208 µM.

Regarding VLAYMLFTK, the dissociation constant Kd is 0.223 µM.

On to NVYADSFVVK, for which the Kd was found to be 0.386 µM.

The same assay, now with this note: source organism: Vaccinia virus Copenhagen.
As to SLAIKNYYRK, the Kd is 0.297 µM.

Still in this assay, the particulars now being: source organism: Vaccinia virus WR.
For the sequence DLDKVYEILK, the dissociation constant Kd worked out at 12 µM.

As to AAGIIILMEY, the dissociation constant Kd was determined as 1.03 µM.

For SIILANERY, the Kd worked out at 19.9 µM.

Regarding GTIAGGVCY, the dissociation constant (Kd) was at least 62.6 µM.

For the sequence SIGNVTRLFY, the dissociation constant Kd was 3.05 µM.

KALMQLTTK: the Kd came to 0.135 µM.

SARNKLFKR: the equilibrium dissociation constant (Kd) came out at 0.00125 µM.

Regarding LILSNKLLY, the dissociation constant (Kd) came to 5.63 µM.

In the case of RLTDTEYRAR, the Kd was determined as 0.00133 µM.

Consider FISDNKKEYK, for which the dissociation constant (Kd) is 0.118 µM.

Take DIVNEHDIK: the equilibrium dissociation constant (Kd) was at least 77.9 µM.

As to EFCVDHPFIY, the equilibrium dissociation constant (Kd) was at least 37.6 µM.

Turning to YVKALTKNY, the Kd is at least 77.9 µM.

On to VFIHMVRCCK, for which the Kd came to 0.0439 µM.

For IFYFISIYSR, the Kd came to 0.00239 µM.

Turning to SMGFKVTTR, the Kd is 0.00194 µM.

On to TSASEIKDR, for which the equilibrium dissociation constant (Kd) was determined as 18.9 µM.

Take GVEDTESIER: the dissociation constant (Kd) was 1.93 µM.

For the sequence YSKKFQESFY, the Kd worked out at 14.4 µM.

As to LILNFLDWIK, the Kd is 0.163 µM.

With PFEKEFTSDY, the Kd was at least 70 µM.

A further assay concerns the target HLA-A*33:01. Described as above. To be noted: source organism: Mammarenavirus juninense.
Consider PLLCNLNKSH, for which the Kd is at least 70 µM.

Consider SWPVQCPLDH, for which the Kd turned out to be 19.4 µM.

The assay is the same for the next values; noted with them: source organism: Mammarenavirus lassaense.
As for HSYAGDAAEH, the Kd was at least 48 µM.

Turning to SGSCLNNEK, the Kd is at least 59.8 µM.

Staying with this assay, now noted: source organism: SARS coronavirus Tor2.
Take RLYECLYRNR: the Kd stood at 2.46 µM.

As for VLAYMLFTK, the Kd is 1.89 µM.

Regarding NVYADSFVVK, the Kd came out at 0.972 µM.

The assay is the same for the next values; noted with them: source organism: Vaccinia virus Copenhagen.
For SLAIKNYYRK, the dissociation constant (Kd) amounted to 1.18 µM.

The assay is the same for the next values; noted with them: source organism: Vaccinia virus WR.
On to DLDKVYEILK, for which the dissociation constant Kd was at least 24.3 µM.

For AAGIIILMEY, the dissociation constant (Kd) was determined as 7.17 µM.

As for SIILANERY, the Kd is at least 77.7 µM.

Consider GTIAGGVCY, for which the equilibrium dissociation constant (Kd) is at least 77.7 µM.

Turning to SIGNVTRLFY, the Kd turned out to be 17.4 µM.

On to KALMQLTTK, for which the Kd turned out to be 18.6 µM.

Consider SARNKLFKR, for which the Kd turned out to be 0.0696 µM.

Consider LILSNKLLY, for which the dissociation constant Kd is 13.2 µM.

For RLTDTEYRAR, the Kd was found to be 0.469 µM.

FISDNKKEYK: the Kd came out at 1.05 µM.

DIVNEHDIK: the equilibrium dissociation constant (Kd) was at least 77.7 µM.

Take EFCVDHPFIY: the dissociation constant Kd was at least 44.4 µM.

YVKALTKNY: the dissociation constant Kd was at least 77.7 µM.

Turning to VFIHMVRCCK, the equilibrium dissociation constant (Kd) stood at 0.212 µM.

Consider IFYFISIYSR, for which the Kd was 0.0762 µM.

In the case of SMGFKVTTR, the Kd amounted to 0.166 µM.

Take TSASEIKDR: the Kd amounted to 1.34 µM.

Turning to GVEDTESIER, the Kd is 0.673 µM.

In the case of YSKKFQESFY, the Kd is at least 70 µM.

Regarding LILNFLDWIK, the Kd was determined as 7.3 µM.

As for PFEKEFTSDY, the dissociation constant Kd was at least 70 µM.
